From publication doi:10.1101/2023.05.02.539095 (bioRxiv, 2023)

What was measured:
[1] = biological target: 0317ΔCD (MSMEG_0317 lacking the C-terminal cytoplasmic domain) (M. smegmatis); assay: SEC-MALS
[2] = biological target: 0317ΔNH (MSMEG_0317 lacking the N-terminal TM helix) (M. smegmatis); assay: SEC-MALS

0317ΔCD (MSMEG_0317 lacking the C-terminal cytoplasmic domain) (domain or fragment)
stoichiometry N [1]: 2

0317ΔNH (MSMEG_0317 lacking the N-terminal TM helix) (domain or fragment)
stoichiometry N [2]: 2
